Test results taken from PMC3513319, “The Importance of the Interaction of CheD with CheC and the Chemoreceptors Compared to Its Enzymatic Activity during Chemotaxis in Bacillus subtilis” (PLoS ONE, 2012).
Blank lines part the entries; values can stand above or below the molecule they belong to.

Experiments:
[1] = biological target: GST-CheD-F102E (Bacillus subtilis) (UniProt P40404); experiment: pull-down; 80 µM GST-CheD or GST-CheD-F102E on glutathione beads; 100 µM CheC or receptor fragment added for 10 min; washed with TBS + 1% Triton X-100; eluted with glutathione; SDS-PAGE, Coomassie stain, densitometry
[2] = biological target: T1, CheC (Bacillus subtilis, UniProt P40403 1-209); experiment: SPR; as a1, but with 20 µM CheY and 5 mM acetyl phosphate (CheYp) in the running buffer and in the injected CheC; conditions: both partners purified
T1 construct: CheC, CheY-P phosphatase, Bacillus subtilis; also called pTM18 (pGEX-6P-2::cheC2); source: E. coli, overexpressed as GST-CheC, purified (GSTrap), GST removed with PreScission protease; not shown: GST, N-terminal, cleaved
T1 sequence (looked up): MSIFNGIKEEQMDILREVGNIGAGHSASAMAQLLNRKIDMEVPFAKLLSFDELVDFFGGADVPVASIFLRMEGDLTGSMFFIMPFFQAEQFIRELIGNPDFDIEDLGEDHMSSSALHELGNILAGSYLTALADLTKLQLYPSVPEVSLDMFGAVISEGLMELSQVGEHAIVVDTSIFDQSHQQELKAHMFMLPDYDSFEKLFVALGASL

[3] = biological target: T1, CheC; experiment: SPR; as a1, but with 20 µM CheY in the running buffer and in the injected CheC; conditions: both partners purified
[4] = biological target: T1, CheC; experiment: SPR; Biacore 3000, NTA chip; 500 RU of GST-6xHis-CheD immobilised; CheC injected at different concentrations (80 µl, 20 µl/min); running buffer TKMD (50 mM Tris pH 8.0, 50 mM KCl, 5 mM MgCl2, 0.1 mM DTT); triplicate; conditions: both partners purified

percent of the CheC bound by GST-CheD [1]: 10%
Molecule: CheC (from UniProt P40403 1-209) (enzyme)

Kd [2]: 0.546 µM
koff [2]: 0.0976 s⁻¹
kon [2]: 179000 M⁻¹ s⁻¹
Kd [3]: 7.01 µM
koff [3]: 0.0743 s⁻¹
kon [3]: 10600 M⁻¹ s⁻¹
Kd [4]: 3.95 µM
koff [4]: 0.0568 s⁻¹
kon [4]: 14700 M⁻¹ s⁻¹
B1: GST-6xHis-CheD (enzyme, Bacillus subtilis, UniProt P40404 1-166, looked up)
chain: MSTTEAVVIKVGIADVKIARFPDTIRTSGLGSCVGLVLYDKEKQTAGLVHVMLPDSTLSKTAELNRAKYADTAVQTTIDMLIEAGCRKFALKAKLAGGSEMFKFKSTNDLMKIGPRNVLAIKEQLSLFNIPIISEDTGGSSGRTIEFEPKSCMLHIRTVKQGEKTI
notes: CheD, chemoreceptor glutamine deamidase, Bacillus subtilis; cheD gene amplified from OI1085 genomic DNA, cloned in pGEX-6P-2; Order of the tags by the printed name GST-6xHis-CheD: the 6xHis lies between GST and CheD; Held on the NTA chip by the 6xHis; also called pWY88 (pGEX-6P-2::6xHis-cheD2); source: E. coli, overexpressed, purified (GSTrap); not shown: GST, N-terminal, kept; 6xHis, N-terminal, …
